Data reported in publication doi:10.1101/2021.07.22.453419.
Like-named read-outs stand apart in the source and are kept apart here. Blank lines part the entries; values can stand above or below the substance they belong to.

Legend:
[1] = target: Papain (E.C.3.4.22.2, from papaya latex) (papaya) (UniProt P00784)
[2] = target: Papain (E.C.3.4.22.2, from papaya latex) (papaya) (UniProt P00784); test: enzyme inhibition kinetics
[3] = target: Papain (E.C.3.4.22.2, from papaya latex) (papaya) (UniProt P00784); remark: listed apart in the source
[4] = target: Papain (E.C.3.4.22.2, from papaya latex) (papaya) (UniProt P00784); remark: listed apart in the source
[5] = target: Papain (E.C.3.4.22.2, from papaya latex) (papaya) (UniProt P00784); remark: listed apart in the source
[6] = target: Papain (E.C.3.4.22.2, from papaya latex) (papaya) (UniProt P00784); remark: listed apart in the source
[7] = target: Papain (E.C.3.4.22.2, from papaya latex) (papaya) (UniProt P00784); remark: listed apart in the source
[8] = target: Papain (E.C.3.4.22.2, from papaya latex) (papaya) (UniProt P00784); remark: listed apart in the source
[9] = target: Papain (E.C.3.4.22.2, from papaya latex) (papaya) (UniProt P00784); conditions: natural protein
[10] = target: Papain (E.C.3.4.22.2, from papaya latex) (papaya) (UniProt P00784); remark: listed apart in the source
[11] = target: Papain (E.C.3.4.22.2, from papaya latex) (papaya) (UniProt P00784); conditions: natural protein; remark: listed apart in the source
[12] = target: Papain (E.C.3.4.22.2, from papaya latex) (papaya) (UniProt P00784); remark: listed apart in the source
[13] = target: Papain (E.C.3.4.22.2, from papaya latex) (papaya) (UniProt P00784); remark: listed apart in the source
[14] = target: Papain (E.C.3.4.22.2, from papaya latex) (papaya) (UniProt P00784); remark: listed apart in the source
[15] = target: Papain (E.C.3.4.22.2, from papaya latex) (papaya) (UniProt P00784); conditions: natural protein; remark: listed apart in the source

Papain (E.C.3.4.22.2, from papaya latex) (papaya), sequence (P00784 134-345): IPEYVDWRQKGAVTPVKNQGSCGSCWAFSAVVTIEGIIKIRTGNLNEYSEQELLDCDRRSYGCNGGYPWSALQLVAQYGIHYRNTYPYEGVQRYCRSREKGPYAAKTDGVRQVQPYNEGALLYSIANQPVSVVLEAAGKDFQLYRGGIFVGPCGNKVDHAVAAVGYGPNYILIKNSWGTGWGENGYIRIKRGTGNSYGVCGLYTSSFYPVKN

Substance: ZmCYSB
Ki [1]: 4.8 nM

Substance: PsCYS
Ki [3]: 4.8 nM

Substance: soybean GmCYSB (natural protein)
Ki [2]: 38.2 nM

Substance: MsCYS
Ki [5]: 7.1 nM

Substance: EgCYS
Ki [6]: 6.4 nM

Substance: TcCYSB
Ki [7]: 5.6 nM

Substance: cucumber cystatin CsCYS
Ki [9]: 14.4 nM

Substance: Glycine soja GsCYS
Ki [11]: 4.3 nM

Substance: KsCYS
Ki [13]: 7.5 nM

Substance: LjCYS
Ki [14]: 13.5 nM

Substance: barley cystatin HaCYS3
Ki [15]: 15.4 nM

Next, values leading:

Ki (papain), fold smaller than that of SlCYS8 [2]: 7 fold
Substance: SlCYS8 SE hybrid P-N1 (N-terminal trunk and first inhibitory loop of PpCYS)

Ki (papain), fold smaller than that of SlCYS8 [2]: 7 fold
Substance: SlCYS8 SE hybrid P-1 (first inhibitory loop of PpCYS)

Ki [4]: 7 nM
Substance: JcCYS

Ki [8]: 13.3 nM
Substance: SlCYS9

Ki [10]: 14 nM
Substance: ThCYS

Ki [2]: 1.2 nM
Substance: Physcomitrella patens C-tailed cystatin domain PpCYS (domain or fragment)

Ki [12]: 5.5 nM
Substance: SiCYS

Ki [2]: 2.7 nM
Substance: tomato multicystatin domain SlCYS7 (domain or fragment)
